In patent US20100197582A1:

Target: human GHR stably expressed in human 293 cells (human) (UniProt P10912)
Experiment: cell-based or functional assay

UniProt P10912, sequence (P10912 19-638): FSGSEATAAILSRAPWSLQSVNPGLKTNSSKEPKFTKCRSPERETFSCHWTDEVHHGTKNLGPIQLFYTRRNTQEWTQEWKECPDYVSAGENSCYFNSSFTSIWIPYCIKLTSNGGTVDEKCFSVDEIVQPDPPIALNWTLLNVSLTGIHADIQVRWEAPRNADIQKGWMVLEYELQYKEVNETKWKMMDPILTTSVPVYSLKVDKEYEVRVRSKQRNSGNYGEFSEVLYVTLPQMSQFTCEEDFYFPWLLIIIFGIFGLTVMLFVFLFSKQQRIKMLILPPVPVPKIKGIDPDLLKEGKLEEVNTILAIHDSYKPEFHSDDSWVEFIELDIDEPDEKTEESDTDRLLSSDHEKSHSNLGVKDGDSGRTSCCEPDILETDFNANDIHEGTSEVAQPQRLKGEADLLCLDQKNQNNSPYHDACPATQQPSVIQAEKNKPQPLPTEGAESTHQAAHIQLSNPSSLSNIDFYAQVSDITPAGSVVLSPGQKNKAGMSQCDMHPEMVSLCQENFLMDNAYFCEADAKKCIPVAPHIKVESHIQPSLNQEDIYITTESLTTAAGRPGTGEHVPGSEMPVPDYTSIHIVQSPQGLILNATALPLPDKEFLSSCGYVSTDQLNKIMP

bioactivity in GH-specific luciferase reporter assay (Stat 5 luciferase reporter), relative to GH: 10%
concentration giving maximal response, Stat 5 luciferase-reporter assay: 50 to 250 nM
Substance: LR-fusion (human GH linked to the A & B domains of the GHR extracellular domain, exGHR1-238, via a (Gly4Ser)4 linker) (from UniProt P01241 27-217; P10912 1-238)
